Measured values from patent US9657104B2, “Anti-c-Met/anti-EGFR bispecific antibodies” (Samsung Electronics Co., Ltd., priority 2013, dated 2017).

System: c-Met and EGFR
Test: Co-localization of c-Met and EGFR by confocal microscopy
Assay type: cell-based
Details: 1 μg/mL, 37° C., 4 hours; MKN45 and EBC1 cell lines; FIGS. 7 and 8
Description: The MKN45 cell line and the EBC1 cell line were prepared in amounts of 4×10^4 cell/well, respectively, to which L3-1Y-IgG2 prepared in Reference Example 1, anti-EGFR scFv prepared in Reference Example 2, and the anti-c-Met/anti-EGFR bispecific antibody ME03S prepared in Example 1 were each added individually or in combination to result in the concentration of 1 μg/mL per well (in case of the combination treatment, to result in 1 μg/mL each) and treated at 37° C. for 4 hours. The cells were treated with 4% (v/v) formaldehyde for 15 min to immobilize them on a plate, and washed three times with PBS. Thereafter, the cells were treated with a blocking buffer (0.5% triton x-100 and 5% donkey serum) at a room temperature for one hour and then treated with a 1:100 dilution of the first antibodies (c-Met primary antibody; #FAB3582A, R&D systems, EGFR primary antibody; #5616, Cell signaling) against c-Met and EGFR, respectively in amounts of 100 μA at 4° C. for 15 hours. After the cells were washed three time with PBS, they were treated with a 1:2000 dilution of the secondary antibody (#A21433, Invitrogen) in an amount of 100 μA at a room temperature for 1 hour and washed three times with PBS to prepare a plate with a mounting medium (#H-1200, Vector).

B1: anti-EGFR scFv: scFv with heavy chain variable region SEQ ID NO: 109, (GGGGS)3 linker, light chain variable region SEQ ID NO: 111 (antibody, V domains shown)
VH: QVQLVQSGAEVKKPGSSVKVSCKASGFTFTDYKIHWVRQAPGQGLEWMGYFNPNSGYSTYAQKFQGRVTITADKSTSTAYMELSSLRSEDTAVYYCARLSPGGYYVMDAWGQGTTVTVSS
VL: DIQMTQSPSSLSASVGDRVTITCRASQGINNYLNWYQQKPGKAPKRLIYNTNNLQTGVPSRFSGSGSGTEFTLTISSLQPEDFATYYCLQHNSFPTFGQGTKLEIKRT
modifications: (GGGGS)3 linker; Synthetic (heavy-chain variable region of anti-EGFR antibody); Synthetic (light-chain variable region of anti-EGFR antibody)
  location of c-Met and EGFR in the cells: EGFR still locates on cell membranes
